Target: T1, RNF31 UBA domain (Homo sapiens, UniProt Q96EP0)
T1 construct: RNF31 UBA domain protein (residues 480-639) with N-terminal Thioredoxin-TEV-6×his-yBBr-3C tags; Thioredoxin (N, cleaved yes); made in house; host or cells: E. coli BL21 (DE3) pLysS
T1 sequence (Q96EP0 480-639): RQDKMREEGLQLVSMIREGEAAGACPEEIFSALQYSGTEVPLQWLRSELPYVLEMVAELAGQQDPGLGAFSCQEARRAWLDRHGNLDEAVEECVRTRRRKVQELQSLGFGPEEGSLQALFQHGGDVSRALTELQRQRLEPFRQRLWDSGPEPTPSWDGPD
Assay: Phage Library Screening with NGS, RNF31 UBA domain
Format: binding
Details: for Phage library screen NGS readout, Target Concentration 10 / Phage library screen NGS readout, Target Concentration 30 / Phage library screen NGS readout, Target Concentration 100 / Phage library screen NGS readout, Target Concentration 300 / Phage library screen NGS readout, Target Concentration 1000: RNF31 UBA domain cluster C46; for Phage library screen NGS readout, BLANK: cluster C46; for phage screen NGS read-out at Target Concentration 10 / phage screen NGS read-out at Target Concentration 30 / phage screen NGS read-out at Target Concentration 100 / phage screen NGS read-out at Target Concentration 300: no competitor

[1] = target concentration 1000, first column
[2] = target concentration 1000, second column

Sequence | Phage library screen NGS readout, Target Concentration 10 | Phage library screen NGS readout, Target Concentration 30 | Phage library screen NGS readout, Target Concentration 100 | Phage library screen NGS readout, Target Concentration 300 | Phage library screen NGS readout, Target Concentration 1000 [1] | Phage library screen NGS readout, Target Concentration 1000 [2] | Phage library screen NGS readout, BLANK (column 1 of 5) | Phage library screen NGS readout, BLANK (column 2 of 5) | Phage library screen NGS readout, BLANK (column 3 of 5) | Phage library screen NGS readout, BLANK (column 4 of 5) | Phage library screen NGS readout, BLANK (column 5 of 5) | phage screen NGS read-out at Target Concentration 10 | phage screen NGS read-out at Target Concentration 30 | phage screen NGS read-out at Target Concentration 100 | phage screen NGS read-out at Target Concentration 300
DPAMIQCLSAAVYCVHY | – | – | – | – | – | – | – | – | – | – | – | 1 | 3 | 8 | –
DPANEHCIAAAWWCQIL | – | – | – | – | – | – | – | – | – | – | – | 0 | 0 | 0 | 3
DPAQLNCLSAAMYCALY | 2 | 19 | 49 | 95 | 104 | 111 | 0 | 0 | 1 | 0 | 0 | – | – | – | –
DPAQMFCYSAAVYCAAF | 0 | 0 | 4 | 5 | 8 | 4 | 0 | 0 | 0 | 0 | 0 | – | – | – | –
DPAQQICLSAAVFCSIF | – | – | – | – | – | – | – | – | – | – | – | 0 | 0 | 4 | 10
DPAQRDCFSAAVYCSFL | – | – | – | – | – | – | – | – | – | – | – | – | 210 | 40 | 88
DPAQRQCLSAAVFCATL | 3 | 24 | 137 | – | 292 | 319 | 0 | 1 | 1 | 0 | 1 | – | – | – | –
DPAQVHCRSAAAWCILM | – | – | – | – | – | – | – | – | – | – | – | 0 | 0 | 0 | 2
DPAREHCAAAATWCOLL (DPAREHCAAAATWCQLL) | – | – | – | – | – | – | – | – | – | – | – | 1 | 0 | 1 | 28
DPAREHCDSAAIFCYIL | – | – | – | – | – | – | – | – | – | – | – | 0 | 0 | 1 | 14
DPARYHCEAAAAWCELL | – | – | – | – | – | – | – | – | – | – | – | 0 | 0 | 0 | 8
DPASIHCAAAALWCDIL | – | – | – | – | – | – | – | – | – | – | – | 0 | 0 | 1 | 8
DPASMVCLSAAVYCAMH | – | – | – | – | – | – | – | – | – | – | – | 1 | 15 | 38 | 77

Now from value to sequence:

Phage library screen NGS readout, Target Concentration 10 | Phage library screen NGS readout, Target Concentration 30 | Phage library screen NGS readout, Target Concentration 100 | Phage library screen NGS readout, Target Concentration 300 | Phage library screen NGS readout, Target Concentration 1000 [1] | Phage library screen NGS readout, Target Concentration 1000 [2] | Phage library screen NGS readout, BLANK (column 1 of 5) | Phage library screen NGS readout, BLANK (column 2 of 5) | Phage library screen NGS readout, BLANK (column 3 of 5) | Phage library screen NGS readout, BLANK (column 4 of 5) | Phage library screen NGS readout, BLANK (column 5 of 5) | phage screen NGS read-out at Target Concentration 10 | phage screen NGS read-out at Target Concentration 30 | phage screen NGS read-out at Target Concentration 100 | phage screen NGS read-out at Target Concentration 300 | Sequence
8 | 39 | 131 | 239 | 297 | 291 | 0 | 1 | 1 | 0 | 0 | – | – | – | – | DPALTNCFSAAVYCAMF
– | – | – | – | – | – | – | – | – | – | – | 0 | 1 | 1 | 6 | DPAMYICEMAAANCLYQ
0 | 0 | 11 | 10 | 10 | 17 | 0 | 0 | 0 | 0 | 0 | – | – | – | – | DPAQMSCFSAAVYCRLF
– | – | – | – | – | – | – | – | – | – | – | 0 | 0 | 1 | 8 | DPAQNHCDSAAVFCYIL
– | – | – | – | – | – | – | – | – | – | – | 0 | 0 | 1 | 10 | DPAQQHCSAAAAWCVVL
10 | 57 | 121 | 199 | 201 | 203 | 1 | 0 | 2 | 1 | 0 | – | – | – | – | DPAQRQCLSAAVWCATF
– | – | – | – | – | – | – | – | – | – | – | 0 | 1 | 0 | 4 | DPAQWVCHMAAMNCLYQ
– | – | – | – | – | – | – | – | – | – | – | 0 | 0 | 1 | 4 | DPAREHCDSAAAWCWVL
– | – | – | – | – | – | – | – | – | – | – | 0 | 1 | 1 | 1 | DPARWVCELAAQNCLYR
5 | 17 | 122 | 255 | 247 | 297 | 0 | 0 | 1 | 0 | 0 | – | – | – | – | DPASASCLSAAIYCSMF
– | – | – | – | – | – | – | – | – | – | – | 0 | 0 | 0 | 0 | DPASIICMLAADNCLYE
– | – | – | – | – | – | – | – | – | – | – | 1 | 0 | 6 | 35 | DPASSHCQSAAIWCYLM

From patent US20240376151A1, “STAPLED PEPTIDES AND METHODS THEREOF” (FOG PHARMACEUTICALS, INC., priority 2022, published 2024)
